Reference: patent US9593156B2 (priority 2012, dated 2017)
Blank lines part the entries; values can stand above or below the molecule they belong to. Ends that are not written are not given here.

Tests used:
[1] = biological target: T1, type A insulin receptor (IR-A) (Homo sapiens, UniProt P06213); assay: Receptor kinase activity (phosphorylation) assay, type A insulin receptor; format: cell-based
T1 construct: expressed in transfected cells; host or cells: HEK293

[2] = biological target: T2, type B insulin receptor (IR-B) (Homo sapiens, UniProt P06213); assay: Receptor kinase activity (phosphorylation) assay, type B insulin receptor; format: cell-based
T2 construct: expressed in transfected cells; host or cells: HEK293

IGF-1 receptor = IGF-1 receptor (Homo sapiens, UniProt P08069); assay: IGF-1 receptor competition binding assay (scintillation proximity); set-up: expressed in transfected cells; plasma membrane fragments; conditions: Table 9; IGF-1 Receptor
Sequence of IGF-1 receptor (P08069 31-736 limits assumed): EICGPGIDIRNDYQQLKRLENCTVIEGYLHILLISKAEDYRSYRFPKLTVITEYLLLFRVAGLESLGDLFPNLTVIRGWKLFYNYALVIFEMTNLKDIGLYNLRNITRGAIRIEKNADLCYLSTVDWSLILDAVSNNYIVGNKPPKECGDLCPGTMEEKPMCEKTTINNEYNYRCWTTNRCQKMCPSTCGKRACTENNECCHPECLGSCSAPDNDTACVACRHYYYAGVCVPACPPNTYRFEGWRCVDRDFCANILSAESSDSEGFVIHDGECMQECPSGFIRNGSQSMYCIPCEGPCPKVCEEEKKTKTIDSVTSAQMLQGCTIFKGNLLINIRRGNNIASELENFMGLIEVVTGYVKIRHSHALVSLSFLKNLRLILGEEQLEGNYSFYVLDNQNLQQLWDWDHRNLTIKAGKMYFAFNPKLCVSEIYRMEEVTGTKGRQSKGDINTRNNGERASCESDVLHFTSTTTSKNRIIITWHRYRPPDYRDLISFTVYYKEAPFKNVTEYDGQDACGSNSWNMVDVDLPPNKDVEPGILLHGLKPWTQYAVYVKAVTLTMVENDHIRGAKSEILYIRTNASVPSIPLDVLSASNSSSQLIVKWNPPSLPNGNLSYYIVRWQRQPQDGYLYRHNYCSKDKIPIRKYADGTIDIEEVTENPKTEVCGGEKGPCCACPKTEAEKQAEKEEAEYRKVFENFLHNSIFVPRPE
Sequence of IGF-1 receptor (P08069 741-1367 partner limits assumed): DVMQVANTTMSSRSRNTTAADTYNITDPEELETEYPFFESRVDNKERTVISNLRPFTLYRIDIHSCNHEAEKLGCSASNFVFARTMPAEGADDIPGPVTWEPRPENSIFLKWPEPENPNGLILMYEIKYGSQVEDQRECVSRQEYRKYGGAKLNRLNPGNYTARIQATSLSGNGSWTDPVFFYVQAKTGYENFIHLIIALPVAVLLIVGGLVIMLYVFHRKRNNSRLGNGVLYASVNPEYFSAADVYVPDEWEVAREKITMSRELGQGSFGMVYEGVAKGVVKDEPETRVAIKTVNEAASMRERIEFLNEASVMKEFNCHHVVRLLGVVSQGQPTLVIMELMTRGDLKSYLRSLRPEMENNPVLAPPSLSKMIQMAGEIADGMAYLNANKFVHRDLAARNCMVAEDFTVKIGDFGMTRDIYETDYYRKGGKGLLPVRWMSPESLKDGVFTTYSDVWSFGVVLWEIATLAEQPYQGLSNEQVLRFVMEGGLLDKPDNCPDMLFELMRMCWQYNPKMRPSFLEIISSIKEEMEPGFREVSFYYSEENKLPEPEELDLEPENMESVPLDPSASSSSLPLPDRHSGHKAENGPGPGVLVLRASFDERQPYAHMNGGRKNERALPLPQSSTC

- % IGF-1 (in test) (IGF-1 receptor): 3.6%
Molecule: CC[C@H](C)[C@H](NC(=O)CN)C(=O)N[C@H](C(=O)N[C@@H](CC(=O)O)C(=O)N[C@@H](CCC(=O)O)C(=O)N[C@H]1CSSC[C@@H]2NC(=O)[C@H](CO)NC(=O)[C@H](CCCNC(=N)N)NC(=O)[C@H](Cc3ccccc3)NC(=O)[C@H](CSSC[C@H](NC(=O)[C@H](CC(C)C)NC(=O)[C@H](Cc3c[nH]cn3)NC(=O)[C@H](CCC(N)=O)NC(=O)[C@H](CC(N)=O)NC(=O)[C@@H](NC(=O)[C@@H](N)Cc3ccccc3)C(C)C)C(=O)NCC(=O)N[C@@H](C)C(=O)N[C@@H](CCC(=O)O)C(=O)N[C@@H](CC(C)C)C(=O)N[C@@H](C(C)C)C(=O)N[C@@H](CC(=O)O)C(=O)N[C@@H](C)C(=O)N[C@@H](CC(C)C)C(=O)N[C@@H](Cc3ccc(O)cc3)C(=O)N[C@@H](CC(C)C)C(=O)N[C@@H](C(C)C)C(=O)N[C@H](C(=O)NCC(=O)N[C@@H](CC(=O)O)C(=O)N[C@@H](CCCNC(=N)N)C(=O)NCC(=O)N[C@@H](Cc3ccccc3)C(=O)N[C@@H](Cc3ccc(O)cc3)C(=O)N[C@@H](Cc3ccccc3)C(=O)N[C@@H](CC(N)=O)C(=O)N[C@@H](CCCCN)C(=O)N3CCC[C@H]3C(=O)N[C@H](C(N)=O)[C@@H](C)O)CSSC[C@@H](C(=O)N[C@@H](C)C(N)=O)NC(=O)[C@H](Cc3ccc(O)cc3)NC(=O)[C@H](CCSC)NC(=O)[C@H](CCC(=O)O)NC(=O)[C@H](CC(C)C)NC(=O)[C@H](CCCNC(=N)N)NC(=O)[C@H](CCCNC(=N)N)NC(=O)[C@H](CC(C)C)NC(=O)[C@H](CC(=O)O)NC2=O)NC1=O)C(C)C [IGF-1 A:In B(1-5)-IGF-1 B(YL) (6-30)]

- IR-B ([2]; Table 14): 0.2%
- IR-A ([1]; Table 14): 1.7%
Molecule: B1,A14-10K B^1(H5,10Y16L17R29)30-C^1des9-12-A^1(H8,K14,N18,21) (GPEHLCGAHLVDALYLVCGDRGFYFNKRTGYGSSSRRGIVDECCHRSCDLKRLENYCN) [MIU-79]

- IC80 (IGF-1 receptor): 62.5 nM
Molecule: CC[C@H](C)[C@H](NC(=O)CN)C(=O)N[C@H](C(=O)N[C@@H](CC(=O)O)C(=O)N[C@@H](CCC(=O)O)C(=O)N[C@H]1CSSC[C@@H]2NC(=O)[C@H](CO)NC(=O)[C@H](CCCNC(=N)N)NC(=O)[C@H](Cc3ccccc3)NC(=O)[C@H](CSSC[C@H](NC(=O)[C@H](CC(C)C)NC(=O)[C@H](Cc3c[nH]cn3)NC(=O)[C@H](CCC(N)=O)NC(=O)[C@H](CC(N)=O)NC(=O)[C@@H](NC(=O)[C@@H](N)Cc3ccccc3)C(C)C)C(=O)NCC(=O)N[C@@H](CO)C(=O)N[C@@H](Cc3c[nH]cn3)C(=O)N[C@@H](CC(C)C)C(=O)N[C@@H](C(C)C)C(=O)N[C@@H](CCC(=O)O)C(=O)N[C@@H](C)C(=O)N[C@@H](CC(C)C)C(=O)N[C@@H](Cc3ccc(O)cc3)C(=O)N[C@@H](CC(C)C)C(=O)N[C@@H](C(C)C)C(=O)N[C@H](C(=O)NCC(=O)N[C@@H](CC(=O)O)C(=O)N[C@@H](CCCNC(=N)N)C(=O)NCC(=O)N[C@@H](Cc3ccccc3)C(=O)N[C@@H](Cc3ccc(O)cc3)C(=O)N[C@@H](Cc3ccccc3)C(=O)N[C@@H](CC(N)=O)C(=O)N[C@@H](CCCCN)C(=O)N3CCC[C@H]3C(=O)N[C@H](C(N)=O)[C@@H](C)O)CSSC[C@@H](C(=O)N[C@@H](C)C(N)=O)NC(=O)[C@H](Cc3ccc(O)cc3)NC(=O)[C@H](CCSC)NC(=O)[C@H](CCC(=O)O)NC(=O)[C@H](CC(C)C)NC(=O)[C@H](CCCNC(=N)N)NC(=O)[C@H](CCCNC(=N)N)NC(=O)[C@H](CC(C)C)NC(=O)[C@H](CC(=O)O)NC2=O)NC1=O)C(C)C [IGF-1 A:In (1-17)-IGF-1 B(18-30)]

- IR-B ([2]; Table 14): 2.1%
- IR-A ([1]; Table 14): 6.4%
Molecule: B1,A14-10K B^1(H5,10Y16L17R29)29:A^1(H8K14N18,21) (chain 1 GPEHLCGAHLVDALYLVCGDRGFYFNKR; chain 2 GIVDECCHRSCDLKRLENYCN) [di-10K-TC]

- IR-B ([2]; Table 13): 8.4%
- IR-A ([1]; Table 13): 20.4%
Molecule: B^1(H5,10Y16L17)25-C^1-A^1(T8N18,21) (GPEHLCGAHLVDALYLVCGDRGFYGYGSSSRRAPQTGIVDECCTRSCDLRRLENYCN) [Thr,A8]

More lines, now with the values behind:

Molecule: B^1(H5,10Y16L17K29)29-A^1(H8,N18,21) (GPEHLCGAHLVDALYLVCGDRGFYFNKKGIVDECCHRSCDLRRLENYCN) [DP3(SC)]
- IR-A ([1]; Table 14): 0.03%

Molecule: B^1(H5,10Y16L17R29)30-C^1des9-12-A^1(H8,K14,N18,21) (GPEHLCGAHLVDALYLVCGDRGFYFNKRTGYGSSSRRGIVDECCHRSCDLKRLENYCN) [DP8Mut3KA14]
- IR-B ([2]; Table 14): 12.6%
- IR-A ([1]; Table 14): 132.2%

Molecule: B^1(H5,10Y16L17K29)29:A^1(H8,N18,21) (chain 1 GPEHLCGAHLVDALYLVCGDRGFYFNKK; chain 2 GIVDECCHRSCDLRRLENYCN) [DP3(TC)]
- IR-B ([2]; Table 14): 33.1%
- IR-A ([1]; Table 14): 159.8%

Molecule: B1-PEG20K MIU-35 (GPEHLCGAHLVDALYLVCGDRGFYGYGSSSRRAPQTGIVDECCHRSCDLRRLENYCN; not fully specified (N-terminus); ends and bridges not checked; also: PEG20K at B1) [#39]
- % Insulin Activity IR-B ([2]; Table 12): 1.1%
- IR-B ([2]; Table 13): 1.1%
- Phosphorylation (EC50) % IR-B ([2]; Table 17): 1.1%
- % Insulin Activity IR-A ([1]; Table 12): 3.1%
- IR-A ([1]; Table 13): 4.5%
- Phosphorylation (EC50) % IR-A ([1]; Table 17): 4.5%

Molecule: CC[C@H](C)[C@H](NC(=O)CN)C(=O)N[C@H](C(=O)N[C@@H](CC(=O)O)C(=O)N[C@@H](CCC(=O)O)C(=O)N[C@H]1CSSC[C@@H]2NC(=O)[C@H](CO)NC(=O)[C@H](CCCNC(=N)N)NC(=O)[C@H](Cc3ccccc3)NC(=O)[C@H](CSSC[C@H](NC(=O)[C@H](CC(C)C)NC(=O)[C@@H](NC(=O)[C@H](CCC(=O)O)NC(=O)[C@@H]3CCCN3C(=O)CN)[C@@H](C)O)C(=O)NCC(=O)N[C@@H](C)C(=O)N[C@@H](CCC(=O)O)C(=O)N[C@@H](CC(C)C)C(=O)N[C@@H](C(C)C)C(=O)N[C@@H](CC(=O)O)C(=O)N[C@@H](C)C(=O)N[C@@H](CC(C)C)C(=O)N[C@@H](Cc3ccc(O)cc3)C(=O)N[C@@H](CC(C)C)C(=O)N[C@@H](C(C)C)C(=O)N[C@H](C(=O)NCC(=O)N[C@@H](CC(=O)O)C(=O)N[C@@H](CCCNC(=N)N)C(=O)NCC(=O)N[C@@H](Cc3ccccc3)C(=O)N[C@@H](Cc3ccc(O)cc3)C(N)=O)CSSC[C@@H](C(=O)N[C@@H](C)C(N)=O)NC(=O)[C@H](Cc3ccc(O)cc3)NC(=O)[C@H](CCSC)NC(=O)[C@H](CCC(=O)O)NC(=O)[C@H](CC(C)C)NC(=O)[C@H](CCCNC(=N)N)NC(=O)[C@H](CCCNC(=N)N)NC(=O)[C@H](CC(C)C)NC(=O)[C@H](CC(=O)O)NC2=O)NC1=O)C(C)C [IGF-1 A:B (E10Y16L17) DPI]
- % IGF-1 (in test) (IGF-1 receptor): 3.3%

B1: GE5W-B^1(H5,10Y16L17)25-C^1-A^1(A1H8N18,21) (protein)
chain: GEEEEEWGPEHLCGAHLVDALYLVCGDRGFYGYGSSSRRAPQTAIVDECCHRSCDLRRLENYCN
- IR-B ([2]; Table 13): 0.7%
- IR-A ([1]; Table 13): 2.1%
